Measured values published in the RNAGym collection of RNA variant scans (doi:10.7554/elife.90254).

B1: OR4K15 (parent)
chain: GUUAACGGUCAUAGGCCAUGGAAACUAGGAGCACCAUUUCGCUGCCAGUGAAGAAAUGAACAAAGAAAAUCUGGGCCAGGCAGGCAUCAAAAGAAAUAGUCUUGCGCUCAACCAGAAAGUCUGUAAUCAUUUUAAGGGUA

Variants of: B1
Assay: self-cleavage, relative activity (ratio to wild type); higher = more cleavage; in vitro, sequencing; the parent is a self-cleaving ribozyme
In the case of A18U U108A, the self-cleavage is reported as 0.02. In the case of U12C U57G, the self-cleavage is reported as 1.33. A126G U133C showed a self-cleavage of 1.2. Work on A18U A90U yielded a self-cleavage of 1.13. A13C U122G gave a self-cleavage of 2.12. In the case of U57A A117G, the self-cleavage is reported as 1.69. For C34U A55G, the self-cleavage was 2.06. Work on A24G U108C yielded a self-cleavage of 0.03. For U102C G123A, the self-cleavage was 2.17. Work on U9C A22U yielded a self-cleavage of 1.7. In the case of A51G A134C, the self-cleavage is reported as 1.4. A59U A94G gave a self-cleavage of 1.02. For A55G U100A, the self-cleavage was 0.48. A59G C112G gave a self-cleavage of 0.03. With A24G A47U the self-cleavage was 0.96. Variant A36G U124C has a self-cleavage of 0.45. In the case of A52G A98U, the self-cleavage is reported as 2.16. With A4U A140U the self-cleavage was 1.5. U2C A33C showed a self-cleavage of 0.88. For A118C, the self-cleavage was 0.97. U49C U127G showed a self-cleavage of 1.49. Variant A69G A118U has a self-cleavage of 0.56. In the case of A60C U120C, the self-cleavage is reported as 0.98. For A23U A92G, the self-cleavage was 1.46. A64G A114G showed a self-cleavage of 0.31. Work on A68G A135U yielded a self-cleavage of 0.68. In the case of U100C A140G, the self-cleavage is reported as 2.28. G28A U124C gave a self-cleavage of 0.6. For A36U A82G, the self-cleavage was 0.39. Variant A89C U132A has a self-cleavage of 1.97. For A51U A98U, the self-cleavage was 2.9. A33C A91G gave a self-cleavage of 1.57. With G7A U9C the self-cleavage was 2.32. In the case of G115U U131C, the self-cleavage is reported as 0.06. A22U A92G gave a self-cleavage of 1.41. A67G A118G gave a self-cleavage of 0.95. Work on U57C A89G yielded a self-cleavage of 0.75. In the case of A4G A91G, the self-cleavage is reported as 1.13. With A78C C128U the self-cleavage was 0.29. U57C A68U gave a self-cleavage of 2.04. Work on A47U A69U yielded a self-cleavage of 1.22. U43A G44A gave a self-cleavage of 1.06. A95G U139C showed a self-cleavage of 2.07. Variant G1A U72C has a self-cleavage of 0.39. In the case of A18G A94U, the self-cleavage is reported as 1.4. For A60U U130C, the self-cleavage was 1.22. A69G A95G showed a self-cleavage of 1.8. In the case of G31A G73U, the self-cleavage is reported as 0.3. A51U U124C showed a self-cleavage of 0.77. For A96U U102A, the self-cleavage was 1.08. A33G U100A gave a self-cleavage of 0.28. A63G A140G gave a self-cleavage of 2.02. Variant A36U C105U has a self-cleavage of 0.17. Variant A47G U132A has a self-cleavage of 1.55. With A94C the self-cleavage was 1.69. A94G gave a self-cleavage of 1.39. Work on U72G G74A yielded a self-cleavage of 0.18. Work on A47G G106A yielded a self-cleavage of 0. In the case of C32U A63G, the self-cleavage is reported as 1.39. A63G C107U showed a self-cleavage of 0.01. A54G G84A showed a self-cleavage of 2.33. For A60G A63C, the self-cleavage was 1.48. A33G A126C gave a self-cleavage of 0.86. For A33G A126U, the self-cleavage was 0.86. Work on A86G U132C yielded a self-cleavage of 1.16. Variant U57A A114U has a self-cleavage of 0.03. With A56G U127C the self-cleavage was 0.96. With A78G A86U the self-cleavage was 0.1. A59G A89G gave a self-cleavage of 1.09. For G83U, the self-cleavage was 0.45. For U103C G104A, the self-cleavage was 0.02. In the case of A36U A60U, the self-cleavage is reported as 2.08. For A98G A140G, the self-cleavage was 0.69. Work on A86G A116U yielded a self-cleavage of 0.36. Work on A18G A64U yielded a self-cleavage of 1.92. In the case of G84A A111G, the self-cleavage is reported as 0.01. In the case of G48A A98U, the self-cleavage is reported as 2.56. Variant G106A has a self-cleavage of 0.01. Work on A36C A114G yielded a self-cleavage of 0.9. Work on U102C U133C yielded a self-cleavage of 2.27. A11G C81U showed a self-cleavage of 0.75. In the case of A13G A67G, the self-cleavage is reported as 1. With A56G A82C the self-cleavage was 0.15. With A94G U102A the self-cleavage was 0.96. U3A A89G gave a self-cleavage of 1.51. For A67U A82G, the self-cleavage was 0.9. Work on A69G A129U yielded a self-cleavage of 0.33. Work on U37C G84A yielded a self-cleavage of 1.7. Variant U2G A135G has a self-cleavage of 0.69. For A54G A55U, the self-cleavage was 1.55. In the case of A52C A63G, the self-cleavage is reported as 2.56. A27U gave a self-cleavage of 0.91. Variant A54U U124A has a self-cleavage of 0.86. In the case of A30G U120A, the self-cleavage is reported as 1.3. A5U U43A showed a self-cleavage of 2.16. G83U A116G showed a self-cleavage of 0.2. Work on A68U U102A yielded a self-cleavage of 1.15. In the case of A13U U49C, the self-cleavage is reported as 1.28. Variant A54G A140U has a self-cleavage of 1.25. Work on U19G A94G yielded a self-cleavage of 1.02. For U9C A82C, the self-cleavage was 0.07. For C71A A86G, the self-cleavage was 0.28. For G15C A78U, the self-cleavage was 0.37. U39C A125U gave a self-cleavage of 1.8. For U9C A110U, the self-cleavage was 1.32. For U97C A111G, the self-cleavage was 0.02. In the case of U26C A78G, the self-cleavage is reported as 0.21. In the case of A36G A114G, the self-cleavage is reported as 1.06. A67G A92G showed a self-cleavage of 1.31. Work on C16U A110U yielded a self-cleavage of 0.72. Work on A59G U130G yielded a self-cleavage of 1.62. A55U U100C gave a self-cleavage of 2.69. A69G U139C showed a self-cleavage of 1.24. For U72A A110U, the self-cleavage was 0.29. For U38A A59G, the self-cleavage was 1.14. Variant U43C G99C has a self-cleavage of 0.26. Variant A51U U108C has a self-cleavage of 0.02. Work on A23G C40U yielded a self-cleavage of 1.37. Work on A22G A66G yielded a self-cleavage of 1.25. A33G G83U gave a self-cleavage of 0.24. A36U U43C gave a self-cleavage of 2.05. Work on A13G U26C yielded a self-cleavage of 0.93. G48U A110G showed a self-cleavage of 0.2. A33U A92G showed a self-cleavage of 1.86. Work on U49C A54G yielded a self-cleavage of 1.19. For A66U G75C, the self-cleavage was 0.18. U43C U103C showed a self-cleavage of 1.03. For U2C A51G, the self-cleavage was 0.84. Variant G41A U87C has a self-cleavage of 0.63. Work on A24G A66G yielded a self-cleavage of 0.73. In the case of U127A C128U, the self-cleavage is reported as 1.78. In the case of G48U U103C, the self-cleavage is reported as 0.49. U9A A82G showed a self-cleavage of 1.13. For G31C U122A, the self-cleavage was 1.89. Variant A18U U127C has a self-cleavage of 0.91. A60G A129G showed a self-cleavage of 0.49. A36U A51U showed a self-cleavage of 1.72. In the case of A13G A30G, the self-cleavage is reported as 1. Variant A23G G44U has a self-cleavage of 1.21. Variant G83A A140U has a self-cleavage of 2.25. A118G A126C gave a self-cleavage of 0.84. With A51G U87A the self-cleavage was 1.3. For C128U A140U, the self-cleavage was 2.45. In the case of U19A A92G, the self-cleavage is reported as 1.47. Variant A82G U124C has a self-cleavage of 0.27. G7A U70C showed a self-cleavage of 1. With A118U U132C the self-cleavage was 0.4. A13G U38C gave a self-cleavage of 1.14. In the case of G41C A86U, the self-cleavage is reported as 0.57. In the case of A27G A110G, the self-cleavage is reported as 0.1. Work on U2G A116G yielded a self-cleavage of 0.37. G74A U87C gave a self-cleavage of 0.19. For A55G C76U, the self-cleavage was 0.15. C76G C121U showed a self-cleavage of 0.08. Work on A22U A30C yielded a self-cleavage of 0.38. Variant U9C U39C has a self-cleavage of 1.45. A62C A92G showed a self-cleavage of 1.58. Variant U102C A111G has a self-cleavage of 0.01. For A62U A118G, the self-cleavage was 1.9. U49G A59G gave a self-cleavage of 0.95. U103G U122C gave a self-cleavage of 0.01. For A56G U108A, the self-cleavage was 0.02. Variant U127A A134G has a self-cleavage of 2.3. A36C U49A showed a self-cleavage of 2. Variant A69G U97C has a self-cleavage of 0.98. For A110G A111U, the self-cleavage was 0.04. A116G A117G gave a self-cleavage of 0.55.
